Reference: patent US20160152995A1, “METHODS AND COMPOSITIONS TO IMPROVE THE SPREAD OF CHEMICAL SIGNALS IN PLANTS” (PIONEER HI-BRED INTERNATIONAL, INC., priority 2013, published 2016)

B1: clone L1-29: SuR polypeptide, SEQ ID NO:10 (protein)
chain: MGSRLDKSKVINSALELLNEVGIEGLTTRKLAQKLGVEQPTLYWHVKNKRALLDALAIEMMDRHQTHFCPLEGESWQDFLRNTAKSMRCALLSHRDGAKVWLGTRWTEKQYETPENMLAFLCQQGFSLENALYAWSAVCNFTLGCVLSDQERQVAKEERETPTTDSMPPLLRQAWELSDHQGAEPAFLFGLELIICGLEKQLKCESGS
modifications: Sulfonylurea responsive repressor
B2: clone L1-44: SuR polypeptide, SEQ ID NO:13 (protein)
chain: MGSRLDKSKVINSALELLNEVGIEGLTTRKLAQKLGVEQPTLYWHVKNKRALLDALAIEMLDRHATHFCPLEGESWQDFLRNNAKSYRCALLSHRDGAKVYLGTAVTEKQYETAENQLAFLCQQGFSLENALYAVKAVAGFTLGCVLWDQESQVAKEERETPTTASMPPLLRQAVELADHQGAEPAFLFGLELIICGLEKQLKCESGS
modifications: Sulfonylurea responsive repressor

System: β-gal background activity
Test: First and second round library screen (L1, L2) for induction by sulfonylurea ligands, β-gal colony assay
Assay type: cell-based, E. coli
Conditions: for Inducer preference: β-gal colony assay, L2 library screened with each ligand at 2 ppm, numbers are the patent's inducer ligand numbers, atc for wt
Source text: The original library was designed to thifensulfuron, but once induction activity was established with other SU compounds having potentially better soil and in planta stability properties than the original ligand, the evolution process was re-directed towards these alternative ligands. Of particular interest were herbicides metsulfuron, sulfometuron, ethametsulfuron and chlorsulfuron. For this objective, parental clones L1-9, -22, -29 and -44 were chosen for further shuffling. Clone L1-9 has strong activity on both ethametsulfuron and chlorsulfuron; clone L1-22 has strong sulfometuron activity; clone L1-29 has moderate metsulfuron activity; and clone L1-44 has moderate activity on metsulfuron, ethametsulfuron and chlorsulfuron. (Data not shown.). No clones found in the initial screen were exceptionally reactive to metsulfuron. These four clones were also chosen due to their relatively strong repressor activity, showing low β-gal background activity without inducer. Strong repressor activity is important for establishing a system which is both highly sensitive to the presence of inducer, and tightly off in the absence of inducer.
Based on the sequence information from parental clones L1-9, -22, -29 and -44, two second round libraries were designed, constructed and screened. The first library, L2, consisted of a ‘family’ shuffle whereby the amino acid diversity between the selected parental clones was varied using synthetic assembly of oligonucleotides to find clones improved in responsiveness to any of the four new target ligands.
The L2 oligonucleotides were assembled, cloned and screened as per the protocol described for library L1 except that each ligand was tested at 2 ppm to increase the stringency of the assay, which is a 10-fold reduction from 1st round library screening concentration.

[1] = library L1 initial screen, data not shown

Row | Molecule | induction activity on metsulfuron [1] | Inducer preference | induction activity on chlorsulfuron [1] | induction activity on ethametsulfuron [1]
1 | B1 | moderate | 9 (weak) |  | 
2 | B2 | moderate | 9 (weak) | moderate | moderate
